Measurements reported in US20240377408A1 (ENCODIA, published 2024).
Values belong to the binder of their own block, whether it stands above or below them. Ends that are not written are not given here. * marks the point of attachment. Benzoyl(4-SO2NH2) = NS(=O)(=O)c1ccc(C(=O)*)cc1; M65 = not defined here; M67 = not defined here; M75 = not defined here; M76 = not defined here; M88 = not defined here

Key:
[1] = biological target: T1, human carbonic anhydrase 2 (wild-type hCAII) (Homo sapiens, UniProt P00918 4-259); assay: cell-based or functional assay
[2] = biological target: T1, human carbonic anhydrase 2 (wild-type …); assay: cell-based or functional assay; remark: listed apart in the source

Binder: M67-AAEIR (reading uncertain; also: printed as M67-AAEIR) [M67-AAEIR]
NTM-AAEIR IC50 (µM), colorimetric IC50 assay (pNPA hydrolysis by wild-type hCAII) [1]: 0.073 µM

Binder: M76-AAEIR (reading uncertain; also: printed as M76-AAEIR) [M76-AAEIR]
NTM-AAEIR IC50 (µM), colorimetric IC50 assay (pNPA hydrolysis by wild-type hCAII) [1]: 0.077 µM

Binder: M75-AAEIR (reading uncertain; also: printed as M75-AAEIR) [M75-AAEIR]
NTM-AAEIR IC50 (µM), colorimetric IC50 assay (pNPA hydrolysis by wild-type hCAII) [1]: 0.067 µM

Binder: M65-AAEIR (reading uncertain; also: printed as M65-AAEIR) [M65-AAEIR]
NTM-AAEIR IC50 (µM), colorimetric IC50 assay (pNPA hydrolysis by wild-type hCAII) [1]: 0.515 µM

B1: (SAB)AAAAE (peptide)
peptide: {Benzoyl(4-SO2NH2)}-AAAAE-NH2
SMILES: C[C@H](NC(=O)c1ccc(S(N)(=O)=O)cc1)C(=O)N[C@@H](C)C(=O)N[C@@H](C)C(=O)N[C@@H](C)C(=O)N[C@@H](CCC(=O)O)C(N)=O
IC50 (µM), hCAII functional assay (p-nitrophenyl acetate hydrolysis) [2]: 0.0484 µM

B5: (SAB)AFAAE (peptide)
peptide: {Benzoyl(4-SO2NH2)}-AFAAE-NH2
SMILES: C[C@H](NC(=O)c1ccc(S(N)(=O)=O)cc1)C(=O)N[C@@H](Cc1ccccc1)C(=O)N[C@@H](C)C(=O)N[C@@H](C)C(=O)N[C@@H](CCC(=O)O)C(N)=O
IC50 (µM), hCAII functional assay (p-nitrophenyl acetate hydrolysis) [2]: 0.183 µM

Binder: M88-AAEIR (reading uncertain; also: printed as M88-AAEIR) [M88-AAEIR]
NTM-AAEIR IC50 (µM), colorimetric IC50 assay (pNPA hydrolysis by wild-type hCAII) [1]: 0.095 µM

The remaining lines, values ahead:

IC50 (µM), hCAII functional assay (p-nitrophenyl acetate hydrolysis) [2]: 0.0284 µM
B2: (SAB)LAAAE (peptide)
peptide: {Benzoyl(4-SO2NH2)}-LAAAE-NH2
SMILES: CC(C)C[C@H](NC(=O)c1ccc(S(N)(=O)=O)cc1)C(=O)N[C@@H](C)C(=O)N[C@@H](C)C(=O)N[C@@H](C)C(=O)N[C@@H](CCC(=O)O)C(N)=O

IC50 (µM), hCAII functional assay (p-nitrophenyl acetate hydrolysis) [2]: 0.0993 µM
B3: (SAB)EAAAE (peptide)
peptide: {Benzoyl(4-SO2NH2)}-EAAAE-NH2
SMILES: C[C@H](NC(=O)[C@H](C)NC(=O)[C@H](CCC(=O)O)NC(=O)c1ccc(S(N)(=O)=O)cc1)C(=O)N[C@@H](C)C(=O)N[C@@H](CCC(=O)O)C(N)=O

IC50 (µM), hCAII functional assay (p-nitrophenyl acetate hydrolysis) [2]: 0.148 µM
B4: (SAB)HAAAE (peptide)
peptide: {Benzoyl(4-SO2NH2)}-HAAAE-NH2
SMILES: C[C@H](NC(=O)[C@H](C)NC(=O)[C@H](Cc1c[nH]cn1)NC(=O)c1ccc(S(N)(=O)=O)cc1)C(=O)N[C@@H](C)C(=O)N[C@@H](CCC(=O)O)C(N)=O

IC50 (µM), hCAII functional assay (p-nitrophenyl acetate hydrolysis) [2]: 0.045 µM
B6: (SAB)FAAAE (peptide)
peptide: {Benzoyl(4-SO2NH2)}-FAAAE-NH2
SMILES: C[C@H](NC(=O)[C@H](C)NC(=O)[C@H](Cc1ccccc1)NC(=O)c1ccc(S(N)(=O)=O)cc1)C(=O)N[C@@H](C)C(=O)N[C@@H](CCC(=O)O)C(N)=O

IC50 (µM), hCAII functional assay (p-nitrophenyl acetate hydrolysis) [2]: 0.153 µM
B7: (SAB)SAAAE (peptide)
peptide: {Benzoyl(4-SO2NH2)}-SAAAE-NH2
SMILES: C[C@H](NC(=O)[C@H](C)NC(=O)[C@H](CO)NC(=O)c1ccc(S(N)(=O)=O)cc1)C(=O)N[C@@H](C)C(=O)N[C@@H](CCC(=O)O)C(N)=O
